Data reported in article PMC3744072, “Analysis of the cartilage proteome from three different mouse models of genetic skeletal diseases reveals common and discrete disease signatures” (Biology Open, 2013).
Values joined by “and” are separate entries in the source; they are usually repeats but may differ in a detail not shown here. Identical values can stand only once.

What was measured:
[1] = biological target: the molecule itself; assay: non-reducing SDS-PAGE and Western blot; sequential extracts (buffer 1: 0.15 M NaCl; buffer 2: 1 M NaCl, 10 mM EDTA; buffer 3: 4 M GuHCl, 10 mM EDTA) of knee cartilage of 3-week-old mice, non-reducing 4-13.5% gels; oligomers assigned by apparent size
[2] = biological target: the molecule itself; assay: non-reducing SDS-PAGE and Western blot; total protein lysates of isolated chondrocytes of 5-day-old mice, 4-12% gels, non-reduced against reduced (0.1 M DTT); oligomers assigned by apparent size

Protein	stoichiometry N [1]	stoichiometry N [2]
matrilin-4 (mouse) (natural protein, mouse (endogenous in mouse cartilage), UniProt O89029 22-624, looked up, matrilin-4, mouse, endogenous in cartilage) QLQSAGPRCYNGPLDLVFMIDSSRSVRPFEFETMRQFLVGLLRSLDVGLNATRVGVIQYSSQVQSVFPLGAFSRREDMERAIRAVVPLAQGTMTGLAIQYAMNVAFSEAEGARPSEERVPRVLVIVTDGRPQDRVAEVAAQARARGIEIYAVGVQRADVGSLRTMASPPLDQHVFLVESFDLIQEFGLQFQGRLCGKDLCAELVHGCQHLCVNAPGTFYCACNSGYKLAPDNKNCLALDLCAEGTHGCEHLCVNSVDSYFCRCRAGFALQQDQRSCRAIDYCSFGNHSCQHECVSTLAGPQCRCREGHDLLPDGRSCRVRDFCNGVDHGCEFQCVSEGLSFHCLCPEGRRLQADGKSCDRCREGHVDLVLLVDGSKSVRPQNFELVKRFVNQIVDFLDVSPEGTRVGLVQFSSRVRTEFPLGRYGTAAEVKQAVLAVEYMERGTMTGLALRHMVEHSFSEAQGARPRDLNVPRVGLVFTDGRSQDDISVWAARAKEEGIVMYAVGVGKAVEEELREIASEPSELHVSYSPDFSTMTHLLENLKGSICPEEGIGAGTELRSPCECESLVEFQGRTLGALESLTQNLARLTERLEELENQLASRK	2 and 3	
cartilage oligomeric matrix protein (COMP), wild type, mouse (natural protein, cartilage oligomeric matrix protein, mouse, endogenous in chondrocytes; The text calls the retained form consistent with a tetramer; also called wild type COMP; source: endogenous, lysate of isolated costal chondrocytes of Matn3 V194D mice) not shown		4
